The values that follow are results of earlier work, collected in article PMC7031699.

Where two headings read alike, the source gives them in different places.

Broadly, the Kd is the equilibrium constant for the complex coming apart.

Data set [1] deals with Gq (Homo sapiens) (UniProt P50148).
Data set [2] shares this target. The source holds these as a separate data set.

Sequence of UniProt P50148 (P50148 whole entry): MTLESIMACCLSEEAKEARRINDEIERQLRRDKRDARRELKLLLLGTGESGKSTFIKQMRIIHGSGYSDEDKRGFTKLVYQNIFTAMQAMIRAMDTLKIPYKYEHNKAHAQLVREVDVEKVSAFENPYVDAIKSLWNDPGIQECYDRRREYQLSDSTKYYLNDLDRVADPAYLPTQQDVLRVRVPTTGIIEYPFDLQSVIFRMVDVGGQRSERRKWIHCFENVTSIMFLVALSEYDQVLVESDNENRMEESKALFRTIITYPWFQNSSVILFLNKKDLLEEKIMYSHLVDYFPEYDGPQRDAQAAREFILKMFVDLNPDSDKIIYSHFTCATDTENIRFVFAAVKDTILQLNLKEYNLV

NTS1 (from UniProt P20789): the values for the Kd in the data set with Gq (Homo sapiens) [1] and in the data set with Gq (Homo sapiens) [2] were 550 nM and above 5 µM, respectively.
